These results are taken from patent US20160376333A1 (University of Washington, published 2016).

The target of assay [1] is Mcl-1 in human cancer cell lines (HeLa, colon cancer lines) (human, UniProt Q07820 1-350). In words: cell-based or functional assay.
In assay [2] the target is T1, human Bcl-XL a.a. 1-205 with C-terminal avi-6his tag (human, UniProt Q07817 2-206).
T1 construct: also called BCL2L1
The assay is described as follows: BLI, biotinylated target on streptavidin sensor, range of analyte concentrations. (Biolayer interferometry detects binding as a change in optical thickness at a sensor tip.)
Target sequence in this assay (Q07817 other isoform, or with tags, fused parts or gaps limits assumed): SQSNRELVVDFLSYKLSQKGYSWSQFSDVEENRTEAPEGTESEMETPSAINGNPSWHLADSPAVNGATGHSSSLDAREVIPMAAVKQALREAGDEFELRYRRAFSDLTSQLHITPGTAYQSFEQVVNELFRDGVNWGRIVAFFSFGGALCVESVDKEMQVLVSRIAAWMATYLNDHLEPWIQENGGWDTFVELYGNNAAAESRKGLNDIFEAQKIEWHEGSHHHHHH

The target of assay [3] is T2, human Mcl-1 a.a. 172-327 with C-terminal avi-6his tag (human).
T2 chain: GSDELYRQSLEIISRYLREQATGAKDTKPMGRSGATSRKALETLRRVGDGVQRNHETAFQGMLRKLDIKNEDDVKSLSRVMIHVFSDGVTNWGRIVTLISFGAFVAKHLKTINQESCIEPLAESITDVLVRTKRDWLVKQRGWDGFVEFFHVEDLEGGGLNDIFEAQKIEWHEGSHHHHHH
Described as above.

Assay [4] concerns the target T3, human Bcl-B a.a. 11-175 with C-terminal avi-6his tag (human).
T3 construct: also called BCL2L10
T3 chain: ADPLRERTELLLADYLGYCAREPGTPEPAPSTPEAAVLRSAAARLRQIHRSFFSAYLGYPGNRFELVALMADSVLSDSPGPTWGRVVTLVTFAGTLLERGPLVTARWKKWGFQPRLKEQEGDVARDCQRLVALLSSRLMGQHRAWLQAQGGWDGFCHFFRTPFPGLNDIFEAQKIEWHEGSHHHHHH
The assay is described as above.

In assay [5] the target is T4, human Bcl-2 a.a. 1-207 with C-terminal avi-6his tag (human, UniProt P10415 2-207). Described as above.
Target sequence in this assay (P10415 other isoform, or with tags, fused parts or gaps limits assumed): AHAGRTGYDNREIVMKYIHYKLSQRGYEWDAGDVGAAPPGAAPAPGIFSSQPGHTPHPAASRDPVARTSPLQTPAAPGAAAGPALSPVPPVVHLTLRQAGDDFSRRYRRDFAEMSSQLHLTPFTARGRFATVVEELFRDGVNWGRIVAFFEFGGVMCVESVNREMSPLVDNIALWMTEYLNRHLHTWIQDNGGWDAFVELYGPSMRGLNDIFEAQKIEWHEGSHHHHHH
Assay [6] has as its target T5, human Bcl-w a.a. 1-182 with C-terminal avi-6his tag (human, UniProt Q92843 1-182).
T5 construct: range 1-182; also called BCL2L2
T5 sequence: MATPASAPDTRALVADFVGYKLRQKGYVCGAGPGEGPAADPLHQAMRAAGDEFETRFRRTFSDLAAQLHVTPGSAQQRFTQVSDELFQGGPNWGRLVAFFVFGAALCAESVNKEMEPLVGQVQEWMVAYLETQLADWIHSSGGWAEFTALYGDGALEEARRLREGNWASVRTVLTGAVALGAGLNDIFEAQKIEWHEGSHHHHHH
The assay is described as above.

Assay [7] concerns the target T6, human Bfl-1 a.a. 1-153 (C4S) with C-terminal avi-6his tag (human).
T6 construct: also called A1/Bfl-1
T6 chain: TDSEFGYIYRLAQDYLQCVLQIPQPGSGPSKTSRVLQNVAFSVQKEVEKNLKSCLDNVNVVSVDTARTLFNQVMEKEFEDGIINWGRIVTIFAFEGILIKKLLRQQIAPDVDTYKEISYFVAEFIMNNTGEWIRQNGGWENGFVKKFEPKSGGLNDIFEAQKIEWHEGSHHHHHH
The description is as above.

For assay [8], the target named is T2, human Mcl-1 a.a. 172-327 with …. In words: ratio of the KD of the next tightest BCL2 protein to the KD of the target, BLI.
Assay [9] concerns the target T1, human Bcl-XL a.a. 1-205 with C-terminal …. In words: BLI at a single analyte concentration (50 nM, 600 s association, then buffer); biotinylated BCL2 protein on a streptavidin sensor.
The target of assay [10] is T2, human Mcl-1 a.a. 172-327 with …. The assay is described as above.
In assay [11] the target is T3, human Bcl-B a.a. 11-175 with C-terminal …. Described as above.
For assay [12], the target named is T4, human Bcl-2 a.a. 1-207 with C-terminal …. The assay is described as above.
Assay [13] deals with T5, human Bcl-w a.a. 1-182 with C-terminal …. Described as above.
Assay [14] has as its target T6, human Bfl-1 a.a. 1-153 (C4S) with …. Described as above.
Assay [15] deals with T1, human Bcl-XL a.a. 1-205 with C-terminal …. The assay is described as follows: BLI, biotinylated target on streptavidin sensor.
For assay [16], the target named is T2, human Mcl-1 a.a. 172-327 with …. In words: BLI, biotinylated target on streptavidin sensor.
Assay [17] deals with T3, human Bcl-B a.a. 11-175 with C-terminal …. In words: BLI, biotinylated target on streptavidin sensor.
Assay [18] has as its target T4, human Bcl-2 a.a. 1-207 with C-terminal …. The assay is described as follows: BLI, biotinylated target on streptavidin sensor.
The target in assay [19] is T7, Epstein-Barr virus BHRF1 a.a. 1-161 with C-terminal avi-6his tag (Epstein-Barr virus).
T7 construct: also called EBV BHRF1; BHRF1-biotin
T7 chain: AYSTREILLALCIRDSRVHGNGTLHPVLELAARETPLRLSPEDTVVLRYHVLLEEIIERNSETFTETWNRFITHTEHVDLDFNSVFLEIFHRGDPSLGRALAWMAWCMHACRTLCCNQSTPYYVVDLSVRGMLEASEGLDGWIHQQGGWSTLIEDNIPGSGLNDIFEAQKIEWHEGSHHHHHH
In words: BLI, biotinylated target on streptavidin sensor.

In assay [20] the target is T5, human Bcl-w a.a. 1-182 with C-terminal …. In words: BLI, biotinylated target on streptavidin sensor.
Assay [21] has as its target T6, human Bfl-1 a.a. 1-153 (C4S) with …. In words: BLI, biotinylated target on streptavidin sensor.
Assay [22] has as its target T2, human Mcl-1 a.a. 172-327 with …. In words: BLI.
In assay [23] the target is T1, human Bcl-XL a.a. 1-205 with C-terminal …. The assay is described as follows: yeast surface display titration (apparent KD).
Assay [24] addresses T2, human Mcl-1 a.a. 172-327 with …. The assay is described as follows: yeast surface display titration (apparent KD).
In assay [25] the target is T4, human Bcl-2 a.a. 1-207 with C-terminal …. The assay is described as follows: yeast surface display titration (apparent KD).
For assay [26], the target named is T7, Epstein-Barr virus BHRF1 a.a. 1-161 …. In words: yeast surface display titration (apparent KD).
The target of assay [27] is T5, human Bcl-w a.a. 1-182 with C-terminal …. The assay is described as follows: yeast surface display titration (apparent KD).
The target of assay [28] is T6, human Bfl-1 a.a. 1-153 (C4S) with …. In words: yeast surface display titration (apparent KD).

Sequence of Mcl-1 in human cancer cell lines (HeLa, colon cancer lines) (Q07820 whole entry): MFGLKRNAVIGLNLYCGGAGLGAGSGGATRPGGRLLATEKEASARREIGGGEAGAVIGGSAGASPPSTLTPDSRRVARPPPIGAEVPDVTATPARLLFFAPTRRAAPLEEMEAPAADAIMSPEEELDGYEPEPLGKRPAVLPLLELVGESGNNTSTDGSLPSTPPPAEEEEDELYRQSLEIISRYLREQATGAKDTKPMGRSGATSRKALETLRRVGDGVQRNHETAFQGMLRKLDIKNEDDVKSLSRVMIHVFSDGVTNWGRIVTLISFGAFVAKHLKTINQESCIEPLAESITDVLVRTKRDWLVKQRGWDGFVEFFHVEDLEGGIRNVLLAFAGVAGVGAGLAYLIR

B1: MINDI (Mcl-1-inhibiting design acting intracellularly) (designed binder)
chain: ADPKKVLDKAKDQAENRVRELKQVLEELYKEARKLDLTQEMRKKLIERYAAAIIRAIGDINNAIYQAKQEAEKLKKAGLVNSQQLDELLRRLDELQKEASRKANEYGREFELKLEY
notes: also called M-CDP04; αMCL1
On to B1, for which, in assay [1], the “decrease of the EC50 of A-1331852 in colon cancer lines on expression of αMCL1” value came to 4.6 fold. Further, the Kd came out at 400 µM in assay [2]; 0.00015 µM in assay [3]; 40 µM in [4]; 14.2 µM in [5]; 200 µM in assay [6]; 30 µM in [7]. Also, in assay [8], the Specificity came to 93000 fold.

B2: M-CDP03 (designed binder)
chain: ADPKKVLDKAKDQAENRVRELKQDLERLYKEARKLDLTQEMRRKLQEKAAAAMIRAIGDINNAIYQALQEADKLKKAGLVNSQQLDELKRRLEELQKEASRKAQAYGEEFMLKLEY
In the case of B2, the binding result in assay [9] is listed as “no binding (tested: 50 nM)”; in assay [10] it was “binds”; in assay [11], “no binding (tested: 50 nM)”; in [12], “no binding (tested: 50 nM)”; in assay [13] it was “no binding (tested: 50 nM)”; in assay [14], “no binding (tested: 50 nM)”.

B3: BINDI N62S (designed binder)
chain: ADPKKVLDKAKDQAENRVRELKQKLEELYKEARKLDLTQEMRRKLELRYIAAMLMAIGDIYSAIRQAKQEADKLKKAGLVNSQQLDELKRRLEELKEEASRKARDYGREFQLKLEY
B3: the Kd in assay [15] turned out to be 8 µM; in assay [16], 0.23 µM; in assay [17], 50 µM; in [18], 30 µM; in [19], 0.00016 µM; in [20], 4.6 µM. For the same molecule, the Kd in [21] is 4 µM. The “fold decrease of affinity relative to BINDI” value in [22] worked out at 6 fold.

B4: BbpD04.2 (designed binder)
chain: ADWKKVLDKAKDIAENRVRELKQKLEEFYKEAMKLDLTQEMRRKLMLRWIAAMLMAIGDIFNAIRQAKQEADKLKKAGLVNSQQLDELKRRLEELKEEASRKCRDYGREFQLKLEY
For the molecule B4, the Kd in assay [23] amounted to 0.031 µM; in assay [24], 0.026 µM; in [25] it was 0.033 µM; in assay [26] it was 0.0006 µM; in assay [27], 0.04 µM; in [28] it was 0.07 µM.
